Residue numbers refer to the chain shown, from its start. Numbers in names are those of the source. Entries after “also recorded” stand apart in the source; their conditions may differ.

One data set deals with T1, EHMT1 WT (Homo sapiens, UniProt Q9H9B1).
T1 construct: WT and p.P809L EHMT1 variant ankyrin domains expressed from Escherichia coli; His6 (N); made in house; host or cells: E. coli BL21 (DE3), pET vector
T1 sequence (Q9H9B1 765-1001 limits assumed): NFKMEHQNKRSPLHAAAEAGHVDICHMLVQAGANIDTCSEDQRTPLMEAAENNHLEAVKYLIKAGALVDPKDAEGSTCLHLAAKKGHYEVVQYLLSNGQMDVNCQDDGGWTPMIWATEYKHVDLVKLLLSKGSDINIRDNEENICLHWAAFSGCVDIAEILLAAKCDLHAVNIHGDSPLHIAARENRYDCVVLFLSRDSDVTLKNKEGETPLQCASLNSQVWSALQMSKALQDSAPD
Put plainly: Trp fluorescence quenching titration of dimethylated histone H3 Lys9 peptide, WT EHMT1. In kind it is binding. To be noted: WT EHMT1 1 μM; stepwise addition of peptide (36.3 μM); 2 min equilibration; 20 °C; λEx 295 nm, λEm 350 nm; midpoint of logistic function with Hill slope; read-out: apparent affinity. Here is the method: (§1) Circular dichroism spectra (Fig. 7, left panel) were recorded to study the effect of the p.P809L mutation on the secondary structure of EHMT1 and confirm the in silico predictions that the p.P809L variant causes abnormal protein folding. The far UV CD spectrum of EHMT1 is dominated by the α-helical content of the protein showing two characteristic minima at 222 and 208 nm. […] Lastly, because the ankyrin repeat domain of the EHMT1 is critical for binding to methylated histones to regulate gene expression, we also studied the interaction of EHMT1 and the p.P809L mutation with its dimethylated target, the histone H3K9 peptide, by monitoring the Trp fluorescence emission at 350 nm after excitation at 295 nm (Fig. 9, left panel).
FIGURE 9. Interaction of EHMT1 with the dimethylated histone H3 Lys^9 peptide. […] The change in fluorescence intensity was followed at λEm = 350 nm after excitation at λEx = 295 nm. […]
For experimental purposes, we produced and purified an N-terminal His6-tagged recombinant form of WT and the p.P809L EHMT1 proteins using the pET vector system (Novagen). […] Spectra in the far UV range (200–260 nm) for WT and p.P809L EHMT1 were recorded on an Aviv Biomedical Model 420SF circular dichroism spectrometer. […] Fluorescence measurements were performed at 20 °C on a Horiba Jobin-Yvon Fluorolog 3 spectrofluorometer equipped with a Wavelength Electronics LF1-3751 temperature controller. […]

The conditions of data set [1]: p.P81L mutation in TPLX motif of p16; cited from earlier work. The text has this:
(§2) Nevertheless, our study is the first to describe how mutations in any of the TPLX motifs of the EHMT1 ankyrin domain affect protein folding to induce a moderate change in its affinity for the H3K9me2 peptide. Thus, it becomes important to compare this information to other, better characterized mutations in ankyrin repeats that are known to be pathogenic in humans. […] Thus, this type of mutation ( ...

The test system of the next data set is CDK4. Conditions: non-quantitative two-hybrid GAL4-based reporter assay; cited from earlier work.
Text: as §2

Data set [2] can be described thus: intrinsic protein fluorescence emission spectra. In kind it is physicochemical. To be noted: protein 1 μM, 20 °C; for λmax of fluorescence emission: excitation 280 and 295 nm, emission 310-440 nm. As to the method:
as §1
FIGURE 8. Fluorescence emission spectra of WT EHMT1 and of p.P809L. Fluorescence emission spectra of WT EHMT1 (solid symbols and bars) and of p.P809L (open symbols and bars) were obtained. Spectra were recorded at 20 °C using a protein concentration of 1 μM. The excitation wavelengths (λEx) were 280 nm (circles; excitation of Trp and Tyr residues) and 295 nm (squares; selective excitation of Trp residues). […]
For experimental purposes, we produced and purified an N-terminal His6-tagged recombinant form of WT and the p.P809L EHMT1 proteins using the pET vector system (Novagen). […] Spectra in the far UV range (200–260 nm) for WT and p.P809L EHMT1 were recorded on an Aviv Biomedical Model 420SF circular dichroism spectrometer. […] Fluorescence measurements were performed at 20 °C on a Horiba Jobin-Yvon Fluorolog 3 spectrofluorometer equipped with a Wavelength Electronics LF1-3751 temperature controller. Fluorescence emission spectra of both proteins were recorded between 310 and 440 nm after excitation at 280 or 295 nm using a protein concentration of 1 μM in a 1-cm quartz cell. […] After equilibration for 2 min, the fluorescence signal was recorded and averaged for 20 s using an excitation wavelength of 295 nm for the selective excitation of Trp residues and an emission wavelength of 350 nm. […]

The nature of data set [3]: far UV circular dichroism spectroscopy. In kind it is physicochemical. Conditions: far UV CD 200–260 nm, 20 °C; Bestsel deconvolution; compared with WT. Here is the method: as §1
FIGURE 7. Impact of the p. P809L mutation on secondary structure. Left panel, far UV CD spectra of WT EHMT1 (●) and of p.P809L (○) were recorded at 20 °C, corrected by the signal of the buffer, and converted to mean ellipticity per amino acid residue (ϴ^MRW). […]
For experimental purposes, we produced and purified an N-terminal His6-tagged recombinant form of WT and the p.P809L EHMT1 proteins using the pET vector system (Novagen). […] Spectra in the far UV range (200–260 nm) for WT and p.P809L EHMT1 were recorded on an Aviv Biomedical Model 420SF circular dichroism spectrometer. […]

Regarding “H3K9me2 peptide: dimethylated histone H3 Lys^9 peptide”, in the data set with EHMT1 WT, the Kd was determined as 760 nM.

B1: p.P81L p16: p.P81L mutation in the TPLX motif within the ankyrin repeat of the tumor suppressor p16 (protein, UniProt P42771 1-156, looked up, variant P81L)
Cyclin-dependent kinase …: MEPAAGSSMEPSADWLATAAARGRVEEVRALLEAGALPNAPNSYGRRPIQVMMMGSARVAELLLLHGAEPNCADPATLTRLVHDAAREGFLDTLVVLHRAGARLDVRDAWGRLPVDLAEELGHRDVARYLRAAAGGTRGSNHARIDAAEGPSDIPD
Turning to B1, the secondary structure entry in data set [1] is reported as “secondary structure alterations”. Besides, the “interaction with CDK4” value in the data set on CDK4 was “impaired interaction with CDK4”.

B2: WT EHMT1: N-terminal His6-tagged recombinant form of WT EHMT1 (protein, UniProt Q9H9B1 2-1298, looked up)
Histone-lysine …: AAADAEAVPARGEPQQDCCVKTELLGEETPMAADEGSAEKQAGEAHMAADGETNGSCENSDASSHANAAKHTQDSARVNPQDGTNTLTRIAENGVSERDSEAAKQNHVTADDFVQTSVIGSNGYILNKPALQAQPLRTTSTLASSLPGHAAKTLPGGAGKGRTPSAFPQTPAAPPATLGEGSADTEDRKLPAPGADVKVHRARKTMPKSVVGLHAASKDPREVREARDHKEPKEEINKNISDFGRQQLLPPFPSLHQSLPQNQCYMATTKSQTACLPFVLAAAVSRKKKRRMGTYSLVPKKKTKVLKQRTVIEMFKSITHSTVGSKGEKDLGASSLHVNGESLEMDSDEDDSEELEEDDGHGAEQAAAFPTEDSRTSKESMSEADRAQKMDGESEEEQESVDTGEEEEGGDESDLSSESSIKKKFLKRKGKTDSPWIKPARKRRRRSRKKPSGALGSESYKSSAGSAEQTAPGDSTGYMEVSLDSLDLRVKGILSSQAEGLANGPDVLETDGLQEVPLCSCRMETPKSREITTLANNQCMATESVDHELGRCTNSVVKYELMRPSNKAPLLVLCEDHRGRMVKHQCCPGCGYFCTAGNFMECQPESSISHRFHKDCASRVNNASYCPHCGEESSKAKEVTIAKADTTSTVTPVPGQEKGSALEGRADTTTGSAAGPPLSEDDKLQGAASHVPEGFDPTGPAGLGRPTPGLSQGPGKETLESALIALDSEKPKKLRFHPKQLYFSARQGELQKVLLMLVDGIDPNFKMEHQNKRSPLHAAAEAGHVDICHMLVQAGANIDTCSEDQRTPLMEAAENNHLEAVKYLIKAGALVDPKDAEGSTCLHLAAKKGHYEVVQYLLSNGQMDVNCQDDGGWTPMIWATEYKHVDLVKLLLSKGSDINIRDNEENICLHWAAFSGCVDIAEILLAAKCDLHAVNIHGDSPLHIAARENRYDCVVLFLSRDSDVTLKNKEGETPLQCASLNSQVWSALQMSKALQDSAPDRPSPVERIVSRDIARGYERIPIPCVNAVDSEPCPSNYKYVSQNCVTSPMNIDRNITHLQYCVCIDDCSSSNCMCGQLSMRCWYDKDGRLLPEFNMAEPPLIFECNHACSCWRNCRNRVVQNGLRARLQLYRTRDMGWGVRSLQDIPPGTFVCEYVGELISDSEADVREEDSYLFDLDNKDGEVYCIDARFYGNVSRFINHHCEPNLVPVRVFMAHQDLRFPRIAFFSTRLIEAGEQLGFDYGERFWDIKGKLFSCRCGSPKCRHSSAALAQRQASAAQEAQEDGLPDTSSAAAADPL
modifications: N-terminal His6 tag
B2: in data set [2], the “λmax of fluorescence emission” value was about 350 nm.

B3: p.P809L: N-terminal His6-tagged recombinant p.P809L EHMT1 variant (c.2426C>T) (protein, UniProt Q9H9B1 2-1298, looked up, variant P809L)
Histone-lysine …: B2 Histone-lysine … with P808L
modifications: N-terminal His6 tag
In the case of B3, the “fluorescence emission (intensity)” value in data set [2] (compared with wild type protein) was “decrease of the fluorescence emission”. Moreover, the “λmax of fluorescence emission” value in data set [2] is 347 nm. Moreover, the α-helical content entry in data set [3] is “reduced α-helical content; also recorded: decrease in the α-helical content”.

The values are drawn from publication PMC5339767, “A Novel Kleefstra Syndrome-associated Variant That Affects the Conserved TPLX Motif within the Ankyrin Repeat of EHMT1 Leads to Abnormal Protein Folding” (The Journal of Biological Chemistry, 2017).
